Results taken from the supplement of paper PMC10567573.
± gives the standard deviation.

Experiment: protein stability index of a GFP-peptide fusion (GPS, HEK-293T) (PSI 1-6); higher = more stable
Details: c terminus: a fixed tail appended
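Further: 24-mer peptide tiles fused after GFP, lentivirally expressed, FACS-sorted into six equal bins by GFP/DsRed ratio, decoded by Illumina sequencing, PSI is the read-weighted mean bin number.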

Row | Sequence | protein stability index (treatment: DMSO) | protein stability index (treatment: MLN4924 1 uM, 8 h)
1 | VLGVADGVGGWRDYGVDPSQFSGT [PPTC7] | 3.51 ± 0.24 | 4 ± 0.088
2 | GPMCDLLWSDPDDRGGWGISPRGA [PPP2CA] | 3.1 ± 0.42 | 3.21 ± 0.33
3 | TILLDGQRVKLKLWDTSGQGRFCT [RAB40A] | 2.21 ± 0.13 | 2.21 ± 0.23
4 | EDITYVLKPTFTKQQIANLDKQAK [USP39] | 4.01 ± 0.097 | 4.17 ± 0.13
5 | DTDAEGDDFELLDQSELSQLDPAS [RETREG3] | 5.61 ± 0.065 | 5.57 ± 0.16
6 | ESGEHFRSLLGYDPQILQMLKEEH [RAD54B] | 3.77 ± 0.35 | 3.56 ± 0.55
7 | SITHYRPVSASRSSLDLSYYPTSS [EMD] | 3 ± 0.26 | 3.23 ± 0.19
8 | AAKLLNVDPDNVVLCLLAADEDDD [GADD45A] | 3.68 ± 0.16 | 3.94 ± 0.27
9 | VLVHVQKWDGKSTTIKRKREDDKL [FABP4] | 2.85 ± 0.46 | 2.85 ± 0.4
10 | QLKAVHEQLAALSQAPVNKPKKKK [BRD3] | 4.51 ± 0.44 | 4.6 ± 0.19
11 | TPGGRGDMKYGIYAVENEHMNRLQ [VTI1B] | 3.69 ± 0.33 | 3.55 ± 0.63
12 | CFFRDHSYQEEAAMELKVEDPFYW [MOG] | 3.04 ± 0.23 | 3.02 ± 0.24
13 | PSGEEEAKVGPGLPDGCQPLQLLR [CBY2] | 4.75 ± 0.22 | 4.79 ± 0.27
14 | CSFSIERILGLDQKKDCVPLMKPH [HESX1] | 2.33 ± 0.19 | 2.43 ± 0.23
15 | ARYIDTHNRVSKEDEDIYKLRHDL [PLK2] | 3.75 ± 0.3 | 3.8 ± 0.13
16 | MSNKDRHIDSSCSSFIKTEPSSPA [ESRRG] | 4.33 ± 0.18 | 4.33 ± 0.17
17 | YKGPLLEEQALTKAAEGGLSSPEF [FAM98B] | 4.41 ± 0.33 | 4.55 ± 0.27
18 | RQKTSGPSVIQEIHQESGKAPSTD [C10orf62] | 5.41 ± 0.073 | 5.4 ± 0.057
19 | RSSFANQGEICLCTSRIFVQKSIY [ALDH8A1] | 2.03 ± 0.41 | 2.13 ± 0.24
20 | EMIQTSKTEITDLRRTMQELEIEL [KRT15] | 3.65 ± 0.25 | 3.65 ± 0.13
21 | WGHCEIRMRYLNGLDPEPLPLMDL [SPSB1] | 2.42 ± 0.59 | 2.36 ± 0.59
22 | LKRAFEAANLPALVLKIMSGTFAP [NEK8] | 2.57 ± 0.59 | 2.71 ± 0.57
23 | EMPYNIWCDGCKNHIGMGVRYNAE [YJU2B] | 2.27 ± 0.32 | 2.49 ± 0.25

Row | Sequence | protein stability index (treatment: DMSO) | protein stability index (treatment: MLN4924 1 uM, 8 h)
24 | TTEQHVPEVEVQVKRRRTASLSNQ [SNURF] | 5.25 ± 0.27 | 5.23 ± 0.17
25 | SGSDVLDNVAYARAFNTDHQTQLL [RAD51] | 3.66 ± 0.21 | 3.73 ± 0.12
26 | ELDGPKQIFFGRRKDMIAEKLAPS [ZNF396] | 3.62 ± 0.11 | 3.62 ± 0.27
27 | YNISEFTRRHPGGSRVISHYAGQD [FADS1] | 3.54 ± 0.15 | 3.42 ± 0.26
28 | LFVLFMFFGMAFNFIVNDSRKKPI [SOAT1] | 3.19 ± 0.45 | 2.99 ± 0.24
29 | EWDKNKSAFPFSDKLGELSDKIGS [CLINT1] | 3.57 ± 0.37 | 3.6 ± 0.22
30 | RKFSRLSCLRRRRHPPKVGDDSDL [SMG5] | 4.08 ± 0.17 | 3.96 ± 0.28
31 | RRARINESLQELRLLLAGAEVQAK [HES6] | 2.62 ± 0.3 | 2.84 ± 0.77
32 | LFSSHPPLGGGVGGQDGLGAPKDQ [KLHL14] | 4.89 ± 0.55 | 4.81 ± 0.049
33 | VCSILLGTSTLLVWVGVIRYLTFF [MCOLN1] | 3.3 ± 0.42 | 3.02 ± 0.079
34 | DVKCYQGTDIVRGCDPLVKPVGRQ [ADAMTSL2] | 3.68 ± 0.3 | 3.88 ± 0.27
35 | EISRGEYLYTYDSQITDSEHNSSL [ZNF8] | 4.29 ± 0.49 | 4.25 ± 0.54
36 | ASLNIKTTVPEVEPPQDSHSRKTV [PRPH] | 5.21 ± 0.43 | 5.18 ± 0.21
37 | NDRGDHYHWKDLNRGINITIYGKT [EFHC1] | 2.5 ± 0.17 | 2.39 ± 0.54
38 | QELLDTVLVNLVPAHKNLNKQAYD [PDS5B] | 2.95 ± 0.34 | 3.02 ± 0.3
39 | YRGAVYADSGNFKRCINLWKYALD [FEM1C] | 2.32 ± 0.08 | 2.33 ± 0.18
40 | QNPTASYYNVVLLRYQFSRPGPQS [FCHO1] | 2.44 ± 0.46 | 2.41 ± 0.27
41 | VLENLEDSCVLTGPDDSLWDKHAC [TRIB3] | 3.69 ± 0.16 | 3.87 ± 0.26
42 | QFHKQIAVMRGQILNLTQALKDNK [PI4K2A] | 2.5 ± 0.36 | 2.8 ± 0.35
43 | SKATFSRNIMNLIDIVAIIPYFIT [KCNA3] | 3.16 ± 0.52 | 3.32 ± 0.76
44 | EAQERELRKREKAEEKERRRKEYD [LRRC59] | 5.4 ± 0.18 | 5.49 ± 0.3
45 | DKDVRLLVACCLADIFRIYAPEAP [PDS5B] | 3.08 ± 0.48 | 3.02 ± 0.08
46 | RLVLPIAYEFNPELVLVSAGFDAA [HDAC6] | 2.3 ± 0.57 | 2.4 ± 0.2

Row | Sequence | protein stability index (treatment: DMSO) | protein stability index (treatment: MLN4924 1 uM, 8 h)
47 | QNLNDRLASYLEKVRALEEANADL [KRT13] | 4.13 ± 0.17 | 3.98 ± 0.39
48 | DSCCPAGIFQAMCLLICAEMYQVS [RHOBTB3] | 3.07 ± 0.12 | 3.02 ± 0.31
49 | ELARIVLLRHRMNWLGRPSKVLSL [RAB40A] | 2.46 ± 0.73 | 2.43 ± 0.43
50 | RRKIRELQLRYSLRILIGDPPHHD [BEX5] | 2.42 ± 0.42 | 2.07 ± 0.23
51 | YLYGILEERKNEMTQVITRTQEEK [TRIM55] | 3.6 ± 0.15 | 3.55 ± 0.31
52 | GGPAGQAGRGGAAGTAGVGETGSG [MYOZ1] | 5.42 ± 0.21 | 5.34 ± 0.32
53 | QRDSKCKVKWTHEEDEQLRALVRQ [MYBL2] | 4.25 ± 0.33 | 4.02 ± 0.24
54 | NFARLQTCISELRMLQREGCFRSQ [M1AP] | 2.15 ± 0.31 | 2.13 ± 0.2
55 | EDLEWERYRGRGSEEYRAPRPQSE [CHGB] | 5.19 ± 0.38 | 5.33 ± 0.23
56 | GATALHFAAEAGHIDIVKELIKWR [FEM1B] | 2.39 ± 0.35 | 2.43 ± 0.33
57 | GQDTMLKAMFSGRVEVLTDAGGWV [KCTD13] | 2.45 ± 0.26 | 2.36 ± 0.35
58 | VSRRAAAAAATVLLRTARVRRECW [SLC19A2] | 2.58 ± 0.17 | 2.99 ± 0.36
59 | ERLCMGVDCTEIFGGNPRFLSLHR [ZNF263] | 2.54 ± 0.24 | 2.83 ± 0.13
60 | LAEARRLFPGRVSVDLMLGLPAQQ [RSAD1] | 2.76 ± 0.25 | 2.7 ± 0.31
61 | ETQTQRGGEFQCGLEAASVYSDHT [RNF180] | 2.33 ± 0.16 | 2.2 ± 0.078
62 | KIGNSAFARYPNGVVVHYFCSKEV [VPS39] | 2.41 ± 0.48 | 2.33 ± 0.32
63 | SRVTAFLDDLSQKLKPLGEAEREF [NLN] | 2.84 ± 0.07 | 3.12 ± 0.51
64 | LQLFHQDGTFSPVTLALFFVLYFL [CLCN6] | 2.45 ± 0.64 | 2.13 ± 0.47
65 | LLYDDLYDDDIDDEDEEEEDADCY [UBE2R2] | 4.26 ± 0.18 | 4.41 ± 0.27
66 | EGVDIKNGTEDLPYAMKPIDYYTE [NSDHL] | 4.72 ± 0.25 | 4.76 ± 0.27
67 | FKPLNSTPATTTEPPKPTFPAYTQ [ZNF207] | 3.84 ± 0.26 | 3.9 ± 0.14
68 | AATTSKEQEPIGTDLDAVRTPEPL [MYBL2] | 5.46 ± 0.3 | 5.41 ± 0.25
69 | RPDGDCASSLNGGNIKGIEGHSPG [ZC2HC1A] | 5.16 ± 0.18 | 5.02 ± 0.31

Row | Sequence | protein stability index (treatment: DMSO) | protein stability index (treatment: MLN4924 1 uM, 8 h)
70 | IVAIIPYFITLGTEIAEQEGNQKG [KCNA1] | 2.87 ± 0.71 | 2.55 ± 0.48
71 | TVLENEDDMLLFDEQEKGIVTKFY [FAN1] | 3.65 ± 0.12 | 3.72 ± 0.26
72 | VIRKNIVKKCLELFSELAEDKENY [HSP90AB1] | 2.33 ± 0.046 | –
73 | TGPQLPESLEDVAMYISQEEWGHQ [ZNF263] | 4.67 ± 0.1 | 4.52 ± 0.29
74 | ARICRLLKHPNIVRLHDSISEEGH [CAMK2A] | 2.85 ± 0.17 | 2.84 ± 0.33
75 | RHVAPIPSHYDVQDRFRIELSEEG [MOSPD3] | 4.34 ± 0.4 | 4.69 ± 0.21
76 | TALGDKKSLEGDLEDLKDQIAQLE [LMNB1] | 5.21 ± 0.24 | 5.27 ± 0.24
77 | QILPVLDFCKVFLISGVTLDNCVE [KLHL13] | 3.21 ± 0.41 | 2.49 ± 0.064
78 | SLGERMNTFVRYLLKRIKKCCGMR [KCNK9] | 3.38 ± 0.14 | 2.83 ± 0.32
79 | SVSWWGLSPALDLQAESPPVDPDS [DNAAF3] | 4.85 ± 0.12 | 4.944 ± 0.047
80 | DAETPPRFTRTPVDQTGVSGGVAS [PTPRD] | 5 ± 0.31 | 4.638 ± 0.016
81 | FEFQVRVCDSCYDSIKDEDRTSLA [WDFY1] | 2.78 ± 0.23 | 3 ± 0.61
82 | VGGEAVEVEEVENVQTEFPGEDEN [TRIM55] | 5.74 ± 0.2 | 5.61 ± 0.34
83 | KKREFRFHPIKETVVEEPVDITPY [INTS3] | 2.83 ± 0.51 | 3.59 ± 0.68
84 | LRDPATITTLRVPVLRPMDLMVEA [PPP2R2B] | 2.85 ± 0.15 | 2.94 ± 0.37
85 | PLSVHRPPTSGCLGPVPREDQAEA [TSPAN10] | 5.23 ± 0.17 | 5.1 ± 0.075
86 | CSPTAHDRECKLPPPSAPASEYCP [WDR88] | 4.55 ± 0.088 | 4.584 ± 0.039
87 | GTRGRLESAQATFQAHRDKYEKLR [ARFIP2] | 4.27 ± 0.31 | 4.44 ± 0.28
88 | PERIYQGSSGSYFVKDPQGRIIAV [PI4K2A] | 2.78 ± 0.25 | 2.74 ± 0.46
89 | SKPKTFQAYLDDCHRRYSCAHCRA [YPEL3] | 2.41 ± 0.55 | 3.04 ± 0.59
